Consider 20 sequences from the DeepSol protein solubility set.

This data set in a line: soluble on expression in E. coli; label from the status in PepcDB or PDB records.
Consider “MLGDVERFFSKKALEMRASEVRELLKLVETSDIISLAGGLPNPKTFPKEIIRDILVEIMEKYADKALQYGTTKGFTPLRETLMKWLGKRYGISQDNDIMITSGSQQALDLIGRVFLNPGDIVVVEAPTYLAALQAFNFYEPQYIQIPLDDEGMKVEILEEKLKELKSQGKKVKVVYTVPTFQNPAGVTMNEDRRKYLLELASEYDFIVVEDDPYGELRYSGNPEKKIKALDNEGRVIYLGTFSKILAPGFRIGWMVGDPGIIRKMEIAKQSTDLCTNVFGQVVAWRYVDGGYLEKHIPEIRKFYKPRRDAMLEALEEFMPEGVKWTKPEGGMFIWVTLPDGIDSKKMLERAIKKGVAYVPGEAFYAHRDVKNTMRLNFTYVDEDKIMEGIKRLAETIKEELKA”, for which the “soluble on expression in E. coli” value is “soluble”.

In the case of “MPTPKAFTLLGPTACGKTALALKIAETLPVEIISLDSALLYTGMDIGTAKPSASERAFVPHHLIDIITPVQTYSAARFVEDCTRLTGEITARGKCPLIVGGTMMYFRALTQGLNDLPEADACLRADLDEQKQMYGLDFLYRTLQKVDPETACRLKPNDSQRIGRALEVYYLTGRPMSAHLNGQPEHTLPFELYTAALIPEDRARLHENIALRFHLMLEQGFIGEVENLRRRYPGLTADSPAIRCVGYRQAWEHLDGATDRQTFIEKGIAATRQLAKRQLTWLRKTPLDCVADPFSDGTSGTRLIEAAKRFFGELEHHHHHH”, the “soluble on expression in E. coli” value is “soluble”.

In the case of “SLYATPIGYADTRFETAADAPRQGVETPYAANVQVYESFRGGLVGLEPDDRVVVVWWADDADRDVLAVRDGDRGVFTTRSPARPNPVCITPCELLAVDAADGTLAIRGWIWRTARRSWI”, the “soluble on expression in E. coli” value was “soluble”.

For the sequence “MGSDKIHHHHHHMLNLDFAKRVIIETAKQEWVDSPASGVRRKLLEREEAERGRATSIVEYKPGASFSTHEHPLGEEILVLEGVFSDENGDYPAGTYIRNPPGSSHAPFSKDGCKLLVKLHQFQPTDTQVVRINTHEAEWLPGQGGLEVMPLHSHGTEHVALVKWPANEVFKPHRHLGGEEILVLSGEFCDEHGRYPEGTWMRSPHTSVHHPFVDRETIIWVKTGHLG”, the “soluble on expression in E. coli” value is listed as “not soluble”.

Turning to “MSLNTIYEPSSICMIRTPLLSVEFFNLFLNTEQIKYSDLQLNAQMKESILTTTFNLYCTLQEINFDGDNKKVRDAKESLLKYLIRMSTRPTPFGLLSGINLGHFVNEPTRLKVGNSIQKYVKVDGEWLYKLVSYIESIDEYYQNLKVIWNSKAHIINDRIYLNEQSAIYLNNNKDTSFSIKNSELLVFIKTTVTNNNITFSNLAEKINQEFEINDITKVKVYIHNLVSKEIIYSTIRPPLSYSDNLNYILNKLSLHNDDFVKKIREIQKLILAYEKTEIGFGEELYKDIIHHMKALFKCKNYLQIDTKIDMINNYLHQDIATNISEAAYLLWLLSRNNIGFTDLKVLHNRFIEKYGFEQLVNIKDLISDITGFGTTIFQEEETDGNNIVMLKQKFLHALRNNDEIVINEKDVESLINDNEINHYHAPMSADVYAELYLGRFYNQYNELIVISPLTASFNAGATFGRFHHLIDTETLAKLEHEKGHYYQKMICDDNVEMISINNIPKYPRNHNVLTNHDSYEYSLNLGSSNSYSKYELTLDDIYVGATFNKLYLYSSQLNKRVIFESNNMYNFLKECNLYRLLREISMESVKCIEPMNDVSIDSFSYSPRIRYKNVILKPAYWKINEMVLPLPKNEEWDQQFLKYQEQFNIPNIVNLVYGDNKLLLNLSLANHRYLLMKEYKKHKRVRLVESFLPQSKNDHVYEIVTPIYKKSSYRGEGHHHHHH”, the “soluble on expression in E. coli” value is recorded as “not soluble”.

Take “MSERPVHEYIKELSEALVQLSDKVLQNFNEALYAVTHKDVQSARKIRIVDDEIDQTEVKLEERCLAFLALQQPVARDLRTMVTIIKINDDLERIGDLAVHIIERMPALGHEVMERYQFEKMGNLSATMVRKAIEAFVTRDRLLADNVCAMDEDVDAMHRMIFKKVADAMKACNTDTEQLLAVLSVSRYIERMADHATRIAREVIYLVTGEIVRHSDDTFEKLIQSLKD”: the “soluble on expression in E. coli” value is “soluble”.

On to “MGSDKIHHHHHHMSTPCILCVAITGSLPTKDNNPAVPITISEQIESTHEAFEAGATICHAHVRNDDQTPSSDPEKFERLKEGLEKHCPGMIIQFSTGGRSGAGKARGGMLPLAPDMASLSVGSNNFPTRVYENPPDLVDWLAGEMRTHQVTPEVEAFDLSHILNAIALHKSGALYGKLYVQFVMGVKNAMPADKEVFDFYVDLVKRRAPDANWCAAGIGANQLVVNEWAIAAGGHTRAGLEDNVRLDRNTLAPSNAALIRRAAELCEKYERPVATWQQAREILDVPLRA”, for which the “soluble on expression in E. coli” value is “not soluble”.

Turning to “MGSDKIHHHHHHMQSFDVVIAGGGMVGLALACGLQGSGLRIAVLEKQAAEPQTLGKGHALRVSAINAASECLLRHIGVWENLVAQRVSPYNDMQVWDKDSFGKISFSGEEFGFSHLGHIIENPVIQQVLWQRASQLSDITLLSPTSLKQVAWGENEAFITLQDDSMLTARLVVGADGAHSWLRQHADIPLTFWDYGHHALVANIRTEHPHQSVARQAFHGDGILAFLPLDDPHLCSIVWSLSPEQALVMQSLPVEEFNRQVAMAFDMRLGLCELESERQTFPLMGRYARSFAAHRLVLVGDAAHTIHPLAGQGVNLGFMDVAELIAELKRLQTQGKDIGQHLYLRRYERRRKHSAAVMLASMQGFRELFDGDNPAKKLLRDVGLVLADKLPGIKPTLVRQAMGLHDLPDWLSAGK”, the “soluble on expression in E. coli” value is recorded as “not soluble”.

On to “MNTKYNKEFLLYLAGFVDGDGSIIAQIEPNQSYKFKHRLKLTFKVTQKTQRRWFLDKLVDEIGVGYVSDSGSVSNYILSEIKPLHNFLTQLQPFLKLKQKQANLVLKIIEQLPSAKESPDKFLEVCTWVDQIAALNDSKTRKTTSETVRAVLD”, for which the “soluble on expression in E. coli” value is “soluble”.

For the sequence “MGSDKIHHHHHHMWVRVPPPAPFSIFLSPGDDIVKRRKSTRTSSFGVKGRESHDSSPFYSRAIYSNFSLPKPSEEDLIENPLPENLLDKVIEGDAREVLKKIPDCSIHLMVTSPPYNVGKEYDEDMTLDEYLEFIEEIMKEVYRVLVWGGRACFNVANLGRKPYIPLHAYLIHLFEKIGFLIRGEIIWDKGEAVSGSSTAWGSWMSPVNPVLRDQHEYIIVMSKGDLKRRKPSDREAKSTITREEFLEFTRSVWKFPPESAKRVGHPAPFPEELPYRCIQLYTFKGDVVLDPFAGVGTTCVAAVKTGRHFVGIEINPEYVKKAEERVKDILSKPTLFEDHC”, the “soluble on expression in E. coli” value is “not soluble”.

For the sequence “MGSDKIHHHHHHMKEQYKIIVLSDELSKEKIQNTLDKNKCKTIVHLVDVSAIVQIENSFQYIVIWRMDAEKITNELINRGVQSTKIINLTKYMYEWRNKLISIYQINPDLMSLYISMKKAKGDPTYELFATGLSYPHCGISTELLSKKSIKLTLPSQDLYYDYLIASQLLSNNHSFQYCLIGIAYFSFYFDMSLSSESYRIHKVYYPLFQDGHHTVVHSHLPTDGFSHLDTPKPLFSIFNMHFEYILLDELKNESLILPWIHAEWNTTPPHIPFEEHGKIRAASHAKLSYPHTLVENKTIFKKYLELLLKHDIKPLIVVFPVTSHYFNCSSKKLKEDFYNVIKDFQSQYSFQIIDLFDSPLFCDDDFYDSDHMNKKGANKMSVLLNMFIQERKV”, the “soluble on expression in E. coli” value is listed as “not soluble”.

Turning to “MGSDKIHHHHHHGSITVILGPMFSGKTTELLRLHDRQIIAKRTCVLVKYAGDTRYDADLVATHSKMTGQGRTVKAHRLSEVQSQIFNDEVQVVSIDEGQFFEDLAETCEELAQRGKVVCVAALNGTFERKPFPQISLLLPYANEIKQVTAVCVECGSQANFSFRSTLDKKVEVIGGSDTYTALCRECY”, the “soluble on expression in E. coli” value is on record as “not soluble”.

Take “GPSASLLVQNGTLNVGDAIVVGNTYGRIRAMVNDLGQRIKTAGPSTPVEITGINDVPQAGDRFV”: the “soluble on expression in E. coli” value was “soluble”.

For “MVFMEENKKYRILGTLLYYVLRIISSTLKIEIVNKYGIDMQRPHIYGFWHSKLFITPIFFRNVEKKLAMSSPTKDGELISVPLEKMGYILVRGSSDKNQISSTISLLKYLKKGYSIGTPLDGPKGPKEKPKKGLLYLSQKTSVPLVPVGISYSKKWILKKTWDQFEIPKPFSKVKIFLGEPILIDDDEDLDKYTEIVKNGINSLNNQIEFLEHHHHHH”, the “soluble on expression in E. coli” value is recorded as “not soluble”.

For “MTNIRVAIVGYGNLGRSVEKLIAKQPDMDLVGIFSRRATLDTKTPVFDVADVDKHADDVDVLFLCMGSATDIPEQAPKFAQFACTVDTYDNHRDIPRHRQVMNEAATAAGNVALVSTGWDPGMFSINRVYAAAVLAEHQQHTFWGPGLSQGHSDALRRIPGVQKAVQYTLPSEDALEKARRGEAGDLTGKQTHKRQCFVVADAADHERIENDIRTMPDYFVGYEVEVNFIDEATFDSEHTGMPHGGHVITTGDTGGFNHTVEYILKLDRNPDFTASSQIAFGRAAHRMKQQGQSGAFTVLEVAPYLLSPENLDDLIARDV”, the “soluble on expression in E. coli” value was “soluble”.

For the sequence “MKEKIPFYNEKEFHDMMKKTKKGTFSGWYIIDKDNKSVEFSGNFNRQFKLNKPVIPVNTEYVTRKEFNEYKDSNDQRLTKIETTLAAQGEQIRIQGEQIKELQIEQKAQGETLKLILQTLQKMSDRLNKMDVRLDKLESKLEHHHHHH”, the “soluble on expression in E. coli” value was “not soluble”.

For “MAHHHHHHMSETSACPLNDFFDIDEENNLDEIKKEEKDVFSGNFLSYIYNQFEFCCINFFDELKKKDKRKNITLKKNYSDGYSKNDNGQCYYNVFDKILKKDVDTIKEVSLHSIYFNPHADWCECAHEFNLELNHEEAEFCIFNFFLKMYRYEERNKDLLLSILLECLYSKKDMKKAFHIQKENLKFLKEIKNIETSNFKESLNELINIIENTNFIQFNANEKKDMQKYYFKLYIIIKIKYPYGIYIFNCDDVYDIVVIDCNTFMQNKPKIMSFLSLRKFISFLNNIYSININEENIYDSFPIIVYESKECYHLSHSHLPLNLTACTPKEKKKNSVKNHLNQSGNENENENKD”, the “soluble on expression in E. coli” value is “not soluble”.

Turning to “MGSDKIHHHHHHMHASVKFRIAEIINSTMPSAEWRLLKQIGVNEVVGTLPRDPSDWRGDQPDLPWDYAPLSSLKRRLSEYGLTLSAIEDNPPMEKIKYGVKGKEDELENVLRLIENMGRLKIGVWCYNWMAGQGWMRSRISIPDRGGAEVTGFSLSDIEEYPPPKMGKIDAETLWKNLAWFLDNVIPVAEDSGVKIAMHPDDPPLEEIRGVSRIMNNVKAFDKLIEMKRSEYNTITLCQGNFTLMTEDLPSAIRHFVRKKAVSFVHFRDVKGKKDNFIESFIDDGKTDTASCMSAYIEEGFDGIMRTDHTPTLYGDTYKVPGYSILGRLHAIGYIQGLIDGVSMV”, the “soluble on expression in E. coli” value was “not soluble”.

For “TEDFRWKTTFNYSQNRNKVVELAPNYTSFVYGDPGFSMAYMMQIKEGGSLGDIYGNTFARDEQGKIKVSDEGKPISESGNKTYLGNCNPDFLLSWANTFTYKGFSLYFLIDMRKGGDVMSLTQATLDGRGVTKATAEARDRGYVEVDGTRFENVEGFYSVVGDRNGISERYMYSATNIRLRELSLSYSFPSTLLAKTKVFTGIDVSLVGRNLFFFYKDAPFDPDAILSVGNTNQGVDVFGMPTTRNIGFNVKFTF”, the “soluble on expression in E. coli” value is “not soluble”.

“MDFSLTEEQELLLASIRELITTNFPEEYFRTCDQNGTYPREFMRALADNGISMLGVPEEFGGIPADYVTQMLALMEVSKCGAPAFLITNGQCIHSMRRFGSAEQLRKTAESTLETGDPAYALALTEPGAGSDNNSATTTYTRKNGKVYINGQKTFITGAKEYPYMLVLARDPQPKDPKKAFTLWWVDSSKPGIKINPLHKIGWHMLSTCEVYLDNVEVEESDMVGEEGMGFLNVMYNFEMERLINAARSTGFAECAFEDAARYANQRIAFGKPIGHNQMIQEKLALMAIKIDNMRNMVLKVAWQADQHQSLRTSAALAKLYCARTAMEVIDDAIQIMGGLGYTDEARVSRFWRDVRCERIGGGTDEIMIYVAGRQILKDYQNK”: the “soluble on expression in E. coli” value was “soluble”.
